Experimental data: publication PMC10925351 (bioRxiv, 2025)

How the values were obtained:
Assay in all cases: reconstitution of a complex by mixing purified proteins
[1] = target: T1, Clb2 (wild-type), 6xHis-tagged (S. cerevisiae, UniProt P24869 1-491)
T1 sequence: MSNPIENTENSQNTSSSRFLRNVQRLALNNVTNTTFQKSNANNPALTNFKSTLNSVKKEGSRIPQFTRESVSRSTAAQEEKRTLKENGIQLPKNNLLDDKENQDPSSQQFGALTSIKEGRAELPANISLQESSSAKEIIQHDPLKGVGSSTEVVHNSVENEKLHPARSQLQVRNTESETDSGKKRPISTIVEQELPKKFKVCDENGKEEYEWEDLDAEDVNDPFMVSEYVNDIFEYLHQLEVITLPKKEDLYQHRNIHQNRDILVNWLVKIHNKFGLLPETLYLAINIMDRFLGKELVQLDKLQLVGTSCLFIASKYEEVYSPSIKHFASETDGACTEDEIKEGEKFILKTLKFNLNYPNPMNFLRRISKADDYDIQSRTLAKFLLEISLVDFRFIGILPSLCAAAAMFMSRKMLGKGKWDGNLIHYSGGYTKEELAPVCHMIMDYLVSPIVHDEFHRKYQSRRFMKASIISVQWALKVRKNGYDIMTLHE

[2] = target: T2, Clb2-pp mutant (R366A, R379A, K383A), 6xHis-tagged (S. cerevisiae, UniProt P24869 1-491, R366A | R379A | K383A)
T2 sequence: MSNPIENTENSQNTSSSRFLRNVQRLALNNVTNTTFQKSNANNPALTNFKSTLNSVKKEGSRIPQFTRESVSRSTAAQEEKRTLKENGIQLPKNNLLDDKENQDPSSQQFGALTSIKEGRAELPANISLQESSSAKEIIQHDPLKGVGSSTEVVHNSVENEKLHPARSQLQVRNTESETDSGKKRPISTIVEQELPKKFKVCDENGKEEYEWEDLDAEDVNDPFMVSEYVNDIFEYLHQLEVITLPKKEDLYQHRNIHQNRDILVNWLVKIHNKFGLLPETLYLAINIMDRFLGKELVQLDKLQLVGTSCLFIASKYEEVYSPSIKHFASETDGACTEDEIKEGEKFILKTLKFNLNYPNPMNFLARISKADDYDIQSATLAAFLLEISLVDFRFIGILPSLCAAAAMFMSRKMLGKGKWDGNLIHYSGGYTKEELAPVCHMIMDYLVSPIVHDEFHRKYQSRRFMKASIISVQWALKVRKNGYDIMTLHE

[3] = target: Clb2-Cdk1 complex (wild-type Clb2) (S. cerevisiae, UniProt P24869;P00546, phosphothreonine at T169 (by Cak1))
Sequence of Clb2-Cdk1 complex (wild-type Clb2) (P00546 whole entry, one chain of several): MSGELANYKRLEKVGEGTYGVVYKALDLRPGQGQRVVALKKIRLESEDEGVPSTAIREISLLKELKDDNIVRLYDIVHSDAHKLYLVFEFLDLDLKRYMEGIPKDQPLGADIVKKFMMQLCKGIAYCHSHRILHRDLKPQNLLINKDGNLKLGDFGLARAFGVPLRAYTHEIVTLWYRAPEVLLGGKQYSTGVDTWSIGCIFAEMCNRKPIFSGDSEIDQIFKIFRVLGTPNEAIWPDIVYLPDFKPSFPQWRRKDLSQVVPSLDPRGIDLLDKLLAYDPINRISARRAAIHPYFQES

B1: Cdk1 (Cdc28), T169-phosphorylated, from a GST-TEV-Cdk1 fusion (enzyme)
chain: not shown
modifications: phosphothreonine at T169 (by Cak1)
[1]
  binding result: binds
[2]
  binding result: binds

B2: Cks1 (wild-type) (natural protein)
chain: MYHHYHAFQGRKLTDQERARVLEFQDSIHYSPRYSDDNYEYRHVMLPKAMLKVIPSDYFNSEVGTLRILTEDEWRGLGITQSLGWEHYECHAPEPHILLFKRPLNYEAELRAATAAAQQQQQQQQQQQQQQQQHQTQSISNDMQVPPQIS
[3]
  binding result: binds

B3: Cks1 mutant (R33E, S82E, R102A) (natural protein)
chain: MYHHYHAFQGRKLTDQERARVLEFQDSIHYSPEYSDDNYEYRHVMLPKAMLKVIPSDYFNSEVGTLRILTEDEWRGLGITQELGWEHYECHAPEPHILLFKAPLNYEAELRAATAAAQQQQQQQQQQQQQQQQHQTQSISNDMQVPPQIS
[3]
  binding result: binds
